Test results from PMC2932750 (Biochemistry, 2010).
Read-outs that look alike come from different tables or passages of the source. Where no end group is shown, it is not given here.

Tests used:
[1] = biological target: T1, EphA2 ligand-binding domain fused to human Fc (EphA2 Fc) (UniProt P29317 24-537); assay: ELISA
[2] = biological target: T1, EphA2 ligand-binding domain fused to …; assay: ELISA; remark: listed apart in the source

T1 sequence (P29317 24-537): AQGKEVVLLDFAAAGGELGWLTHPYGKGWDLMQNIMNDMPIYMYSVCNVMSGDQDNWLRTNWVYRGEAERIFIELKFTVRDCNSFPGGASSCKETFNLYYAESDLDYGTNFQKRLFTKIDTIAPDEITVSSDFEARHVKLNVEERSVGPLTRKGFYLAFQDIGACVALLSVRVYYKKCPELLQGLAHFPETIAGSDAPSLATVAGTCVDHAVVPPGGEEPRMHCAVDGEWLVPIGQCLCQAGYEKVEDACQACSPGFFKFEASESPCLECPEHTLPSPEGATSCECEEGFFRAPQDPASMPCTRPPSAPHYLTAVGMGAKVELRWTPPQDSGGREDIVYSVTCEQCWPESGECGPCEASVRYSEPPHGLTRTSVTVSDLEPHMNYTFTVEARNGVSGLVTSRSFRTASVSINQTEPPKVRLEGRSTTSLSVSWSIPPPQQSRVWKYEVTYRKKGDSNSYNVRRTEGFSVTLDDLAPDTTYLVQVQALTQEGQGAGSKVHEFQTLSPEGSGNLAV

Row | Binder | IC50 [1] | IC50 [2]
1 | YSAFPDSVPMMS (C-terminal amide if made in house) [YSAF-12mer] | 47 µM | 
2 | SWLAYPDSVP (C-terminal amide if made in house) [SWLA-10mer] | 39 µM | 
3 | YSSYPDSVPMMS (C-terminal amide if made in house) [YSS-12mer] | > 100 µM | 
4 | YSAAPDSVPMMS (C-terminal amide if made in house) [Ala-4 peptide (YSA-12mer with alanine at position 4)] |  | > 100 µM

The remaining binders from weak to strong by IC50 [1], led by results:

Row | IC50 [1] | IC50 [2] | Binder
5 | 6.5 µM |  | SWLAYPDSVPMMS (C-terminal amide if made in house) [SWLA-13mer]
6 | 5.2 µM |  | YSAYPDSVPC (free C-terminal cysteine thiol; C-terminal amide if made in house) [YSA-C-10mer (monomeric)]
7 | 3.7 µM |  | SWLAYPDSVPC (free C-terminal cysteine thiol; C-terminal amide if made in house) [SWLA-C-11mer]
8 | 1.8 µM |  | YSAYPDSVPC (also: homodimer, disulfide between C-terminal cysteines of the two chains) [dimerized YSA-C-10mer]
